US20240018502A1
Where a chain is given by its changes, count along the chain named. In names and notes the source's numbering stands.

B1: MTSP-1 I41R/ins97aV/F97D/T98P/F99L/C122S/G151N/Q192G (enzyme)
chain: VVGGTDADEGEWPWQVSLHALGQGHRCGASLISPNWLVSAAHCYIDDRGFRYSDPTQWTAFLGLHDQSQRSAPGVQERRLKRIISHPFFNDDVPLDYDIALLELEKPAEYSSMVRPISLPDASHVFPAGKAIWVTGWGHTQYGGTNALILQKGEIRVINQTTCENLLPQQITPRMMCVGFLSGGVDSCGGDSGGPLSSVEADGRIFQAGVVSWGDGCAQRNKPGVYTRLPLFRDWIKENTGV
B2: MTSP-1 Q38R/I41S/D60bH/F60eI/ins97aE/F97T/T98G/F99L/C122S/Q175L/Q192E (enzyme)
chain: B1 chain with Q23R, R26S, D47H, F50I, D92T, V93E, P94G, N146G, Q170L, G189E
B3: MTSP-1 Q38R/I41S/D60bH/F60eI/ins97aE/F97T/T98G/F99L/C122S/G151N/Q175L/Q192E (enzyme)
chain: B1 chain with Q23R, R26S, D47H, F50I, D92T, V93E, P94G, Q170L, G189E
B4: MTSP-1 Q38H/I41S/D60bT/F60eS/ins97aV/F97D/T98P/F99L/C122S/G151H/Q175L/Q192E (enzyme)
chain: B1 chain with Q23H, R26S, D47T, F50S, N146H, Q170L, G189E
B5: MTSP-1 Q38R/I41S/D60bH/F60eV/ins97aE/F97T/T98G/F99L/C122S/G151N/Q175L/Q192E (enzyme)
chain: B1 chain with Q23R, R26S, D47H, F50V, D92T, V93E, P94G, Q170L, G189E
B6: MTSP-1 ins97aV/F97D/T98P/F99L/C122S/Q175L/Q192E (enzyme)
chain: B1 chain with R26I, N146G, Q170L, G189E
B7: MTSP-1 Q38R/I41E/ins97aE/F97T/T98G/F99L/C122S/G151N/Q175L/Q192T (enzyme)
chain: B1 chain with Q23R, R26E, D92T, V93E, P94G, Q170L, G189T
B8: MTSP-1 F97D/ins97aV/T98P/F99L/C122S/G151N/Q175L/Q192E (enzyme)
chain: B1 chain with R26I, Q170L, G189E
B9: MTSP-1 Q38H/I41A/D60bA/F60eR/ins97aE/F97T/T98G/F99L/C122S/G151N/Q175L/Q192E (enzyme)
chain: B1 chain with Q23H, R26A, D47A, F50R, D92T, V93E, P94G, Q170L, G189E
B10: MTSP-1 Q38R/I41S/D60bH/F60eV/F97T/ins97aE/T98G/F99L/C122S/Q175L/Q192E (enzyme)
chain: B1 chain with Q23R, R26S, D47H, F50V, D92T, V93E, P94G, N146G, Q170L, G189E
B11: MTSP-1 I41D/ins97aE/F97T/T98G/F99L/C122S/G151N/Q175L/Q192E/Q209L (enzyme)
chain: B1 chain with R26D, D92T, V93E, P94G, Q170L, G189E, Q207L
B12: MTSP-1 Q38E/I41S/D60bH/F60eI/ins97aE/F97T/T98G/F99L/C122S/G151N/Q175L/Q192V (enzyme)
chain: B1 chain with Q23E, R26S, D47H, F50I, D92T, V93E, P94G, Q170L, G189V
B13: MTSP-1 I41R/ins97aV/F97D/T98P/F99L/C122S/G151N/Q175L/Q192E (enzyme)
chain: B1 chain with Q170L, G189E
B14: MTSP-1 Q38H/I41A/D60bV/F60eI/ins97aE/F97T/T98G/F99L/C122S/Q175L/Q192E (enzyme)
chain: B1 chain with Q23H, R26A, D47V, F50I, D92T, V93E, P94G, N146G, Q170L, G189E
B15: MTSP-1 Q38H/I41A/F60eA/Y60gW/ins97aE/F97T/T98G/F99L/C122S/Q175L/Q192E (enzyme)
chain: B1 chain with Q23H, R26A, F50A, Y52W, D92T, V93E, P94G, N146G, Q170L, G189E
B16: MTSP-1 Q38H/I41S/D60bA/F60eV/Y60gF/ins97aE/F97T/T98G/F99L/C122S/G151N/Q175L/Q192T (enzyme)
chain: B1 chain with Q23H, R26S, D47A, F50V, Y52F, D92T, V93E, P94G, Q170L, G189T
B17: MTSP-1 Q38E/I41S/D60bV/F60eK/ins97aE/F97T/T98G/F99L/C122S/G151N/Q175L/Q192I (enzyme)
chain: B1 chain with Q23E, R26S, D47V, F50K, D92T, V93E, P94G, Q170L, G189I
B18: MTSP-1 Q38H/I41A/D60bA/F60eR/F97T/ins97aE/T98G/F99L/C122S/Q175L/Q192E (enzyme)
chain: B1 chain with Q23H, R26A, D47A, F50R, D92T, V93E, P94G, N146G, Q170L, G189E
B19: MTSP-1 Q38E/I41S/D60bV/F60eK/F97T/ins97aE/T98G/F99L/C122S/Q175L/Q192I (enzyme)
chain: B1 chain with Q23E, R26S, D47V, F50K, D92T, V93E, P94G, N146G, Q170L, G189I
B20: MTSP-1 H40R/I41H/F97D/ins97aV/T98P/F99L/C122S/Q175R/Q192G/D217E/K224R (enzyme)
chain: B1 chain with H25R, R26H, N146G, Q170R, D215E, K222R
B21: MTSP-1 Q38E/I41S/D60bH/F60eI/F97T/ins97aE/T98G/F99L/C122S/Q175L/Q192V (enzyme)
chain: B1 chain with Q23E, R26S, D47H, F50I, D92T, V93E, P94G, N146G, Q170L, G189V
B22: MTSP-1 Q38R/I41E/ins97aE/F97T/T98G/F99L/C122S/Q175L/Q192T (enzyme)
chain: B1 chain with Q23R, R26E, D92T, V93E, P94G, N146G, Q170L, G189T
B23: MTSP-1 Q38H/I41A/D60bV/F60eR/Y60gW/ins97aE/F97T/T98G/F99L/C122S/G151N/Q175L/Q192D (enzyme)
chain: B1 chain with Q23H, R26A, D47V, F50R, Y52W, D92T, V93E, P94G, Q170L, G189D
B24: MTSP-1 ins97aV/F97D/T98P/F99L/C122S/G151N/Q175L/Q192G (enzyme)
chain: B1 chain with R26I, Q170L
B25: MTSP-1 Q38E/H40R/I41H/D60bE/F97D/F99L/C122S/Q192G (enzyme)
chain: VVGGTDADEGEWPWQVSLHALGEGRHCGASLISPNWLVSAAHCYIDERGFRYSDPTQWTAFLGLHDQSQRSAPGVQERRLKRIISHPFFNDDTLDYDIALLELEKPAEYSSMVRPISLPDASHVFPAGKAIWVTGWGHTQYGGTGALILQKGEIRVINQTTCENLLPQQITPRMMCVGFLSGGVDSCGGDSGGPLSSVEADGRIFQAGVVSWGDGCAQRNKPGVYTRLPLFRDWIKENTGV
B26: MTSP-1 Q38G/H40R/I41H/D60bN/F97D/F99L/C122S/Q175L/Q192G (enzyme)
chain: B25 chain with E23G, E47N, Q169L
B27: MTSP-1 Q38G/H40R/I41H/D60bN/F60eT/F97D/F99L/C122S/Q175L/Q192G (enzyme)
chain: B25 chain with E23G, E47N, F50T, Q169L
B28: MTSP-1 Q38E/H40R/I41H/D60bN/F60eT/F97D/F99L/C122S/Q175L/Q192G (enzyme)
chain: B25 chain with E47N, F50T, Q169L
B29: MTSP-1 Q38E/H40R/I41H/D60bN/F97D/F99L/C122S/Q192G (enzyme)
chain: B25 chain with E47N
B30: MTSP-1 Q38G/H40R/I41H/D60bK/F60eT/F97D/F99L/C122S/Q175L/Q192G (enzyme)
chain: B25 chain with E23G, E47K, F50T, Q169L
B31: MTSP-1 Q38E/H40R/I41H/D60bK/F60eT/F97D/F99L/C122S/Q175L/Q192G (enzyme)
chain: B25 chain with E47K, F50T, Q169L
B32: MTSP-1 Q38E/H40R/I41H/D60bK/F97D/F99L/C122S/Q175L/Q192G (enzyme)
chain: B25 chain with E47K, Q169L
B33: MTSP-1 Q38G/H40R/I41H/D60bK/F97D/F99L/C122S/Q175L/Q192G (enzyme)
chain: B25 chain with E23G, E47K, Q169L
B34: MTSP-1 Q38H/I41S/D60bV/F60eQ/Y60gF/ins97aE/F97T/T98G/F99L/C122S/Q175L/Q192I (enzyme)
chain: VVGGTDADEGEWPWQVSLHALGHGHSCGASLISPNWLVSAAHCYIDVRGQRFSDPTQWTAFLGLHDQSQRSAPGVQERRLKRIISHPFFNDTEGLDYDIALLELEKPAEYSSMVRPSLPDASHVFPAGKAIWVTGWGHTQYGGTGALILQKGEIRVINQTTCENLLPQLITPRMMCVGFLSGGVDSCIGDSGGPLSSVEADGRIFQAGVVSWGDGCAQRNKPGVYTRLPLFRDWIKENTGV
B35: MTSP-1 Q38H/I41S/D60bA/F60eV/Y60gF/F97T/ins97aE/T98G/F99L/C122S/Q175L/Q192T (enzyme)
chain: VVGGTDADEGEWPWQVSLHALGHGHSCGASLISPNWLVSAAHCYIDARGVRFSDPTQWTAFLGLHDQSQRSAPGVQERRLKRIISHPFFNDTEGLDYDIALLELEKPAEYSSMVRPISLPDASHVFPAGKAIWVTGWGHTQYGGTGALILQKGEIRVINQTTCENLLPQLITPRMMCVGFLSGGVDSCTGDSGGPLSSVEADGRIFQAGVVSWGDGCAQRNKPGVYTRLPLFRDWIKENTGV
B36: MTSP-1 Q38H/I41A/D60bV/F60eT/Y60gW/ins97aE/F97T/T98G/F99L/C122S/Q175L/Q192E (enzyme)
chain: B35 chain with S26A, A47V, V50T, F52W, T189E
B37: MTSP-1 Q38H/I41A/D60bV/F60eR/Y60gW/ins97aE/F97T/T98G/F99L/C122S/Q175L/Q192D (enzyme)
chain: B35 chain with S26A, A47V, V50R, F52W, T189D

biological target: plasma purified human complement protein C3 (human) (UniProt P01024); assay: cell-based or functional assay
Sequence (P01024 23-667, chain 1 of 2): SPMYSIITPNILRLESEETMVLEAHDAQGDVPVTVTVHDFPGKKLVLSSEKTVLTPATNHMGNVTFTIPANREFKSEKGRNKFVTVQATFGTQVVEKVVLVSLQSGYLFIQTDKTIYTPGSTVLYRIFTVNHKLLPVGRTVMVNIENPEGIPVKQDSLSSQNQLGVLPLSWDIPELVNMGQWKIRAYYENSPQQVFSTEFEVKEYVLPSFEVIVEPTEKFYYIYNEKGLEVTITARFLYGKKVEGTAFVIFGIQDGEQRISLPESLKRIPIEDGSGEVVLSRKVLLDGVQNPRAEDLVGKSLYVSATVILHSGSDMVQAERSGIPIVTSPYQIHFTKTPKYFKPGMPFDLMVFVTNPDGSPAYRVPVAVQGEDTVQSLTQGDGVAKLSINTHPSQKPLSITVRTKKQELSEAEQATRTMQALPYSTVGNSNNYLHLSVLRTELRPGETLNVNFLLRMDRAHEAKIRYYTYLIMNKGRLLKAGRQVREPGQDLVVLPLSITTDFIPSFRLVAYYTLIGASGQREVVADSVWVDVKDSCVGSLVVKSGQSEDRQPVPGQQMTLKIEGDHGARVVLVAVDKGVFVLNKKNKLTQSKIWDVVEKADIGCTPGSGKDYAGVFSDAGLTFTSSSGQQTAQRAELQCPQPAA
Sequence (P01024 672-1663, chain 2 of 2): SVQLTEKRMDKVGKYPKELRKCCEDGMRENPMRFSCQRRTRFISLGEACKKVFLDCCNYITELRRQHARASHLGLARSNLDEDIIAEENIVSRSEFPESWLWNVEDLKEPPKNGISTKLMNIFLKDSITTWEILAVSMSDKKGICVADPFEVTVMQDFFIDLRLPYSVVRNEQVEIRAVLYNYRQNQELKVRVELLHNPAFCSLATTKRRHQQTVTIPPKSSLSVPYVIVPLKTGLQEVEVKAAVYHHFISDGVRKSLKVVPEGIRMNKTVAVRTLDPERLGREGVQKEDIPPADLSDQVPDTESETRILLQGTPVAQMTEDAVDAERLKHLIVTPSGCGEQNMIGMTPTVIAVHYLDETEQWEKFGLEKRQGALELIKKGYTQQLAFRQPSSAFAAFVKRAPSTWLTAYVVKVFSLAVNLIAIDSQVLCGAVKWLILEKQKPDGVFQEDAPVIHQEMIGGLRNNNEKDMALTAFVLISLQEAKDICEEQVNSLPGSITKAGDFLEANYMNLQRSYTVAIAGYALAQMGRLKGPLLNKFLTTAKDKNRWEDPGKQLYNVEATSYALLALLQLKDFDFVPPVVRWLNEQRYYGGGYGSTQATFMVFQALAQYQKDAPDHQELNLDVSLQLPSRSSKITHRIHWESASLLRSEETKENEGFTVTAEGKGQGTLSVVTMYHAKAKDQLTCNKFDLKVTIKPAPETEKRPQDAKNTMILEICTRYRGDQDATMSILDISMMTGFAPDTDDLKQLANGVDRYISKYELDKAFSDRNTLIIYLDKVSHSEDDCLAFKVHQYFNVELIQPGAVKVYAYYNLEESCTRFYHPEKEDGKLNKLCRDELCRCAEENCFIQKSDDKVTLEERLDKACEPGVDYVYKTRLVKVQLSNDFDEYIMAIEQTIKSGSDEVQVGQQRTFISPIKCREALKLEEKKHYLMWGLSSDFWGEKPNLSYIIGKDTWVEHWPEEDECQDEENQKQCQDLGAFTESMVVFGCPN

Binder	EC50 of hC3 cleavage [nM]
B1	232
B2	27.3
B3	32.9
B4	29.8
B5	22.5
B6	158
B7	105
B8	194
B9	14.2
B10	35.2
B11	103
B12	11.5
B13	187
B14	7.64
B15	5.93
B16	14.2
B17	19.1
B18	12
B19	20.4

Binder	EC50 of hC3 cleavage [nM]
B20	65.8
B21	10.4
B22	63.3
B23	7.74
B24	38.5
B25	28.1
B26	0.867
B27	11.9
B28	9.42
B29	39.5
B30	21.3
B31	16.6
B32	15.3
B33	20.6
B34	5.95
B35	7.46
B36	1.39
B37	2.37
